Measured values from US20240360189A1.

Target: SLAMF7 (CS1, CD319, CRACC) on NK92MI cells (human) (UniProt Q9NQ25)
Assay: flow cytometry, cross-linking of violet-stained NK92MI cells with PKH26-stained P. aeruginosa RP73; controls without molecule 0.29 and 0.31

B1: BiKE B′: ELO scFv [(RTX VL 10-first amino-acids/ELO (VL-VH)] anti-SLAMF7.C4bpβ.scFv (VL-VH) anti-Psl.FLAG (bispecific antibody, not shown: small tags and cut ends)
chain: RSQIVLSQSPAILSASVGDRVTITCKASQDVGIAVAWYQQKPGKVPKLLIYWASTRHTGVPDRFSGSGSGTDFTLTISSLQPEDVATYYCQQYSSYPYTFGQGTKVEIKGGSSRSSSSGGGGSGGGGEVQLVESGGGLVQPGGSLRLSCAASGFDFSRYWMSWVRQAPGKGLEWIGEINPDSSTINYAPSLKDKFIISRDNAKNSLYLQMNSLRAEDTAVYYCARPDGNYWYFDVWGQGTLVTVSSASGGGGSSGGGGSSGGGGSIQEAPKPECEKALLAFQESKNLCEAMENFMQQLKESGMTMEELKYSLELKKAELKAKLLSGGGGSSGGGGSSGGGGSDIQLTQSPSSLSASVGDRVTITCRASQSIRSHLNWYQQKPGKAPKLLIYGASNLQSGVPSRFSGSGSGTDFTLTISSLQPEDFATYYCQQSTGAWNWFGCGTKVEIKGGGGSGGGGSGGGGSGGGGSQVQLQESGPGLVKPSETLSLTCTVSGGSISPYYWTWIRQPPGKCLELIGYIHSSGYTDYNPSLKSRVTISGDTSKKQFSLKLSSVTAADTAVYYCARADWDRLRALDIWGQGTMVTVSS
modifications: Covalent homodimer through the cysteines of the C4bp beta fragment; one chain is given.
- % colocalization (violet+PKH26+): 1.85%
